Results from paper PMC7472703, “DNA methylation suppresses chitin degradation and promotes the wing development by inhibiting Bmara-mediated chitinase expression in the silkworm, Bombyx mori”.

T1: Bmara (homeobox protein araucan) (Bombyx mori, UniProt A0A8R1WJM2 5-477)
T1 sequence: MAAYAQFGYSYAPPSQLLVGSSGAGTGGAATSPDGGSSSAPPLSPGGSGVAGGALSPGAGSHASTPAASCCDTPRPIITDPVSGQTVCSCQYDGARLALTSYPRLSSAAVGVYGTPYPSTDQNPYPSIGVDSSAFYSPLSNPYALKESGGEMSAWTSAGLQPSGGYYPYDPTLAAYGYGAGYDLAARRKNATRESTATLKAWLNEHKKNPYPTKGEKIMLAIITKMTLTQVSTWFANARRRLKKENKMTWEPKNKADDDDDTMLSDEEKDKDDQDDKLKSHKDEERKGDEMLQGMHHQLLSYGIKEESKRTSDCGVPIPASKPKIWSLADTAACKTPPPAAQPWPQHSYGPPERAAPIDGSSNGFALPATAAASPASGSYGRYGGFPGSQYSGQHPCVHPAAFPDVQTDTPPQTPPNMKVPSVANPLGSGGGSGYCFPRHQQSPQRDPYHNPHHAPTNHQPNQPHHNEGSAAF


Molecular target: T1, Bmara (homeobox protein araucan)
Experiment: EMSA; 5 mM MgCl2, 4 mM EDTA; EMSA: 50 mM KCl, 5 mM MgCl2, 4 mM EDTA, 2.5% glycerol, 0.05% NP-40, 50 ng poly(dI-dC), 20 fmol probe, 20 uL, 20 min RT. Pull-down: 10 mM HEPES pH 7.6, 100 mM K
Conditions: protein: recombinant; tags: 6xHis (pET-28a/32a); label: 5' biotin; blunt

Row | Binder | binding result
1 | Wt CRE probe (BmCHT10 promoter -250 to -225; legend -250 to -221) (dsDNA) DNA 1: TTCAGTCCACGGCTGTCTTTCAACACGGA DNA 2: TCCGTGTTGAAAGACAGCCGTGGACTGAA | binds
2 | Mut-CRE probe (dsDNA) DNA 1: TTCAGTCCACGGCGTGACTTTCGACCGGA DNA 2: TCCGGTCGAAAGTCACGCCGTGGACTGAA | no binding
